# From PMC12726774, “HAEEPGP Peptide Efficiently Prevents Alzheimer's Disease Pathology in Vivo” (Alzheimer's & Dementia, 2025)
# B1: HAEEPGP peptide (peptide)
# peptide: HAEEPGP
# notes: HAEE tetrapeptide with PGP amino acids added to its C-terminus to stabilize the peptide; The 125I label was used for pharmacokinetics only, not for the calorimetry
# Molecular target: beta-amyloid (Aβ) peptide
# Test: ITC; isothermal titration calorimetry of HAEEPGP with Aβ peptides; also with zinc ions, which enhanced the interaction; which peptide was titrated, buffer and temperature not told
# Conditions: both partners purified
binder,measurement,value
B1,Kd,1640 nM
